Experimental data taken from the supplement of paper PMC9732359.
± gives the uncertainty stated by the source.

Test: protein stability index of a GFP-peptide fusion (yeast GPS) (PSI 1-4); higher = more stable; sorted into four equal gates, so the index is relative within each strain
Settings: pdr5∆
Method in brief: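 Mid-log yeast cultures in leucine-free medium, carrying a pooled plasmid library, were sorted into four equal gates by their GFP/Cherry fluorescence ratio. Each plasmid expressed Cherry along with GFP fused upstream of a tiled 17-residue yeast protein peptide. Plasmids recovered from each gate were PCR-amplified and Illumina-sequenced, with reads assigned to strains by barcodes. The protein stability index was obtained by summing each gate's read frequency weighted by its gate number.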

Sequence | protein stability index
DAKSTPLRLRLYDNFVS [RPN9] | 3.22 ± 0.088
DALLNSTTEHINIDDLL [YJL039C/NUP192] | 2.73 ± 0.12
DATANATANATANATAN [DSN1] | 3.04 ± 0.071
DATRVFVNGVWHGVHRN [RPB2] | 3.35 ± 0.071

Same assay, conditions: san1∆

Sequence | protein stability index
AIAGNSTTNSDVSLLLQ [RGR1] | 3.03 ± 0.056
AIGTKRYDSNSGGEREI [RPT2] | 3.39 ± 0.12
AIGYEPLSLTHRDKNKM [DIS3] | 2.88 ± 0.063
AIHIFESYYNWKYNNFL [YML103C/NUP188] | 1.94 ± 0.24
AILKLLENMPHPWEQAK [PRP8] | 1.93 ± 0.13
AILQEKILSILNRSHFA [ECM29] | 2.27 ± 0.054
AIQFVKENELLFGEKSI [YCS4] | 2.58 ± 0.16
AISKKDLEEVKRFQVLY [SEC65] | 2.8 ± 0.29
AISLGLLKGSIDQVNEL [RPN9] | 3.16 ± 0.095
AKCNSLLQLKYFSNKTS [POP5] | 1.8 ± 0.1
AKILSQAPTELELQVAQ [RPS7A] | 2.3 ± 0.053
AKKLPNGNWEVGVHIAD [DIS3] | 2.51 ± 0.19
AKKQNYKLTNDEEGIFS [YCG1] | 3.15 ± 0.074
AKKTIQNPLNKSQNTAL [SIR4] | 2.99 ± 0.042
AKLESLLENSVDKNFDK [MTW1] | 3.34 ± 0.048
AKNRILASKIKQYERLR [RRI1] | 2.37 ± 0.051
AKRNLPHTTLVNECIAQ [CDC53] | 2.65 ± 0.067
ALAFGYVKSLHKQISAE [SIN4] | 1.78 ± 0.11
ALKGPVRDKLDEYQAAV [DPB4] | 3.2 ± 0.052
ALKKSRSKGKQNRPYNH [RPC17] | 2.5 ± 0.1
ALNGIDINTVNTNLMNG [GRR1] | 3.08 ± 0.042
ALNKISKYYPGVIIKVE [SNU114] | 1.9 ± 0.085
ALTVQEVLNRVASRHPS [YDL116W/NUP84] | 3.12 ± 0.043
AMANAPGNNIPYMNHKN [GAL11] | 2.6 ± 0.18

Sequence | protein stability index
AMKELAEKKIPLVIRRY [RPO26] | 1.7 ± 0.13
AMTAAEHGLHAPAYAWS [CYT1] | 2.8 ± 0.13
ANFIFSPASGIVDKYIG [RPT4] | 1.93 ± 0.12
ANKEKKRAEKAARKAEK [RPL24B] | 3.58 ± 0.066
ANLLFKKEKLKQENSTL [RPC82] | 1.92 ± 0.12
ANVFRLENQKDLVIVDE [MTW1] | 3.4 ± 0.091
ANVNASAMPAPYMPYYY [DSN1] | 2.79 ± 0.059
APEKDIWVGEWKEVLAH [RPO31] | 2.16 ± 0.12
APEQQVQQFAQLPVGFK [UBP6] | 3.09 ± 0.059
APHDSEATLLTNSNNGS [SNF5] | 2.91 ± 0.045
APKGSTDPKELYNNAHV [RPC40] | 2.68 ± 0.11
APMRLATAALEIILKLC [YJL039C/NUP192] | 1.31 ± 0.087
APTRELVQQIQKETQKV [PRP28] | 2.95 ± 0.06
APVETKKKRFEIKKWTA [HRT1] | 2.93 ± 0.12
AQDEEIHKQIVIEMKRC [UBP6] | 3.26 ± 0.066
AQQQKRGGFGGRNRGRP [RPS2] | 3.31 ± 0.069
AQSHQRFNAKVSMVKRA [CDC53] | 1.56 ± 0.16
ARAAKIAPRPLDLLRPV [RPL13B] | 3.07 ± 0.056
ARDLATMTYEEVAKRLV [FAS1] | 3.12 ± 0.13
ARDLLDDLEKTLDKKDS [RPN9] | 3.15 ± 0.12
ARILARSERKRTKISRG [ITC1] | 3.07 ± 0.078
ASEREELALIEEAYDNP [PRP8] | 3.35 ± 0.065
ASLNLLQLAPGAHLGRF [RPL4A] | 3.18 ± 0.092
ASRNVWSFYNGNVLIND [SNU114] | 3.5 ± 0.053

Sequence | protein stability index
ASSNFPFLNETKPGVYY [RPC82] | 2.73 ± 0.091
ASVVPSASSLVITALKE [RPL12A] | 2.12 ± 0.071
ATAFNKTRGPFHFRAPS [RPL16A] | 2.56 ± 0.094
ATIIGIISTAIADSTHV [ECM29] | 1.95 ± 0.066
ATKAINGCIFTLNPKTG [PRP8] | 2.71 ± 0.059
ATLGIDPPKGILLYGPP [RPT1] | 2.95 ± 0.13
ATNTFGSNQQSSTGGGL [YGR119C/NUP57] | 3.15 ± 0.13
ATSDNKTTNTTPSFSFG [YJL041W/NSP1] | 3.09 ± 0.032
ATSSTNANAGLFNKPPS [YOR098C/NUP1] | 3.05 ± 0.079
ATVPSGRPETYIWRYLP [RPO31] | 1.16 ± 0.16
AVATPKAEVTQLSNGIV [COR1] | 3.12 ± 0.053
AVDAKQLAQIRQFLKAN [YML103C/NUP188] | 2.96 ± 0.093
AVKDQQKYTKEMIDSHI [SNF2] | 2.38 ± 0.068
AVKLGDLKKFTSTITKY [RPN3] | 2.27 ± 0.066
AVNMTQNIMTLPDGKNG [MED6] | 2.67 ± 0.059
AVTEATSTNGDSENNEE [RGR1] | 3.36 ± 0.068
AVVGQQIISGNRVPDGF [RPO31] | 2.88 ± 0.2
AVVVGTGNIKHEDLVNS [COR1] | 2.93 ± 0.077
AVYFADTSGLKISNSEF [SIN4] | 3.1 ± 0.049
AYSMGAQNQGGQVSMSQ [PGD1] | 3.02 ± 0.094
AYVVNDTAPKPNIVEID [DLS1] | 2.97 ± 0.11
CAYTGTGDVLLIQDLLH [RPN1] | 2.75 ± 0.065
CCINAAFLALVDAGIAL [RRP46] | 2.06 ± 0.061
CCTKFFTMMTSEPLTLK [PCI8] | 1.98 ± 0.12

Sequence | protein stability index
CDYYNTFLLNNKNIDIG [RPN2] | 2.85 ± 0.069
CEISGSIEQLRNVVEDI [BRN1] | 3.09 ± 0.19
CFMHLLVQLFLWDSKEL [RPN3] | 1.61 ± 0.15
CINELDNWNAPLIMATC [RPO31] | 3.3 ± 0.07
CKLFDKISFNLRLKLFL [SRB8] | 1.2 ± 0.086
CLNCEKSKLFEWKSEFV [SNM1] | 2.97 ± 0.067
CLSPGAFLSKVPEFFQT [SRP14] | 2.87 ± 0.17
CMEVASAFMKFSKAIEW [BRR2] | 2.42 ± 0.068
CRDSDDHKRFIVFHNEF [DIS3] | 2.33 ± 0.2
CRSCPYEFPIEGIEIYD [RPC11] | 1.85 ± 0.11
CTEAGLLALRERRMQVT [RPT2] | 2.33 ± 0.14
CTESTRENALYDYYALQ [SNF2] | 2.99 ± 0.048
CTQMTDEGLLNMVSLRG [GRR1] | 2.22 ± 0.088
CVAAWGVCNHAFHLHCI [HRT1] | 1.52 ± 0.076
CWLSNIDIQTQDLNQRF [RRI1] | 3.24 ± 0.072
DAHGVTQARVITGNKIM [RPS13] | 1.22 ± 0.12
DAIIPFAAIPEQGIELE [FAS2] | 3.42 ± 0.084
DAITVKDVKAWAGKRLW [COR1] | 2.87 ± 0.063
DAKKARFWSFMKTQRFV [SIR4] | 2.67 ± 0.069
DAKSTPLRLRLYDNFVS [RPN9] | 3.21 ± 0.063
DALLNSTTEHINIDDLL [YJL039C/NUP192] | 2.59 ± 0.092
DATANATANATANATAN [DSN1] | 3.37 ± 0.053
DATRVFVNGVWHGVHRN [RPB2] | 3.28 ± 0.048

Same assay, conditions: ubr1∆

Sequence | protein stability index
AIAGNSTTNSDVSLLLQ [RGR1] | 3.13 ± 0.071
